# Assay results from paper PMC2996635 (Journal of immunology (Baltimore, Md. : 1950), 2010).
# B1: hCD5-His (extracellular region of human CD5 fused to a His tag) (domain or fragment, UniProt P06127 25-372, looked up)
# chain: RLSWYDPDFQARLTRSNSKCQGQLEVYLKDGWHMVCSQSWGRSSKQWEDPSQASKVCQRLNCGVPLSLGPFLVTYTPQSSIICYGQLGSFSNCSHSRNDMCHSLGLTCLEPQKTTPPTTRPPPTTTPEPTAPPRLQLVAQSGGQHCAGVVEFYSGSLGGTISYEAQDKTQDLENFLCNNLQCGSFLKHLPETEAGRAQDPGEPREHQPLPIQWKIQNSSCTSLEHCFRKIKPQKSGRVLALLCSGFQPKVQSRLVGGSSICEGTVEVRQGAQWAALCDSSSARSSLRWEEVCREQQCGSVNSYRVLDAGDPTSRGLFCPHQKLSQCHELWERNSYCKKVFVTCQDPNP
# Experiments:
# Experiment in all cases: SEC
# [1] = target: hrCD5-His (human CD5 domain 1 and rat CD5 domains 2 and 3, His tag) (human | rat)
# [2] = target: mCD5-His (extracellular region of mouse CD5 fused to a His tag) (mouse)
# SEC = target: the molecule itself
molecule,measurement,setting,value
"hrCD5-His (human CD5 domain 1 and rat CD5 domains 2 and 3, His tag)",stoichiometry N,[1],2
mCD5-His (extracellular region of mouse CD5 fused to a His tag) (domain or fragment),stoichiometry N,[2],2
B1,stoichiometry N,SEC,2
